In patent US20230265151A1, “GIP/GLP1 CO-AGONIST COMPOUNDS” (priority 2020, published 2023):
Substitutions are numbered along the chain they refer to.

T1: human GIP receptor (human, UniProt P48546 22-466)
T1 sequence (looked up): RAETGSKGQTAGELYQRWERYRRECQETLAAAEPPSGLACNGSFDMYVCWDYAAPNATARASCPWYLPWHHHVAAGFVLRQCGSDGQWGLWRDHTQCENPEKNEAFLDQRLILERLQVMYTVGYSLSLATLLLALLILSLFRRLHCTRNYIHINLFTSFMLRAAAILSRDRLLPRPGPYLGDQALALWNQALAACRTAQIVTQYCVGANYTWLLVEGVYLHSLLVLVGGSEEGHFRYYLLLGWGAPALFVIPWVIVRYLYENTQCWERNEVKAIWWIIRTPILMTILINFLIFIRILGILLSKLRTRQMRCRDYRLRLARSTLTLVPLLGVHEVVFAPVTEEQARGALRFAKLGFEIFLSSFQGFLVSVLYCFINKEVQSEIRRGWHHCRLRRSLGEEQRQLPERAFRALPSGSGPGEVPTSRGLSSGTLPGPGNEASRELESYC

B1: Y-Aib-EGT-αMeF-TSD-4Pal-SI-αMeF-LD-Orn-K((2-[2-(2-Amino-ethoxy)-ethoxy]-acetyl)2-(γ-Glu)-CO-(CH2)12-CO2H)AQ-Aib-EFI-(D-Glu)-αMeY-LIEGGK((2-[2-(2-Amino-ethoxy)-e … (peptide)
peptide: YXEGTXTSDXSIXLDXKAQXEFIXXLIEGGKSSGAPPPS
modifications: Aib2, αMeF6, 4Pal10, αMeF13, Orn16, Aib20, D-Glu24, αMeY25; acylated K17, K31 (groups as in name); C-terminal amide
B2: Y-Aib-EGT-αMeF(2F)-TSD-4Pal-SI-αMeL-LD-Orn-K((2-[2-(2-Amino-ethoxy)-ethoxy]-acetyl)2-(γ-Glu)-CO-(CH2)12-CO2H)AQ-Aib-E-2Nal-I-(D-Glu)-αMeY-LIEGGK((2-[2-(2-Amino- … (peptide)
peptide: B1 peptide with F22X
modifications: Aib2, αMeF(2F)6, 4Pal10, αMeL13, Orn16, Aib20, 2Nal22, D-Glu24, αMeY25; acylated K17, K31 (groups as in name); C-terminal amide
B3: Y-Aib-EGT-αMeF(2F)-TSD-Ac6c-SI-αMeL-LD-Orn-K((2-[2-(2-Amino-ethoxy)-ethoxy]-acetyl)2-(γ-Glu)-CO-(CH2)12-CO2H)AQ-Aib-EFI-(D-Glu)-αMeY-LIEGGK((2-[2-(2-Amino-ethox … (peptide)
peptide: B1 peptide
modifications: Aib2, αMeF(2F)6, Ac6c10, αMeL13, Orn16, Aib20, D-Glu24, αMeY25; acylated K17, K31 (groups as in name); C-terminal amide
B4: Y-Aib-EGT-αMeF(2F)-TSD-4Pal-Aib-I-αMeL-LD-Orn-K((2-[2-(2-Amino-ethoxy)-ethoxy]-acetyl)2-(γ-Glu)-CO-(CH2)12-CO2H)AQ-Aib-EFI-(D-Glu)-αMeY-LIEGGK((2-[2-(2-Amino-et … (peptide)
peptide: B1 peptide with S11X
modifications: Aib2, αMeF(2F)6, 4Pal10, Aib11, αMeL13, Orn16, Aib20, D-Glu24, αMeY25; acylated K17, K31 (groups as in name); C-terminal amide
B5: Y-Aib-EGT-αMeF(2F)-TSD-Ac4c-SI-αMeL-LD-Orn-K((2-[2-(2-Amino-ethoxy)-ethoxy]-acetyl)2-(γ-Glu)-CO-(CH2)12-CO2H)AQ-Aib-EFI-(D-Glu)-αMeY-LIEGGK((2-[2-(2-Amino-ethox … (peptide)
peptide: B1 peptide
modifications: Aib2, αMeF(2F)6, Ac4c10, αMeL13, Orn16, Aib20, D-Glu24, αMeY25; acylated K17, K31 (groups as in name); C-terminal amide
B6: Y-Aib-EGT-αMeF(2F)-TSD-4Pal-SI-αMeL-LD-Orn-K((2-[2-(2-Amino-ethoxy)-ethoxy]-acetyl)2-(γ-Glu)-CO-(CH2)12-CO2H)AQ-Aib-GFI-(D-Glu)-αMeY-LIEGGK((2-[2-(2-Amino-ethox … (peptide)
peptide: B1 peptide with E21G
modifications: Aib2, αMeF(2F)6, 4Pal10, αMeL13, Orn16, Aib20, D-Glu24, αMeY25; acylated K17, K31 (groups as in name); C-terminal amide
B7: Y-Aib-EGT-αMeF(2F)-TSDVSI-αMeL-LD-Orn-K((2-[2-(2-Amino-ethoxy)-ethoxy]-acetyl)2-(γ-Glu)-CO-(CH2)12-CO2H)AQ-Aib-E-αMeF-I-(D-Glu)-αMeY-LIEGGK((2-[2-(2-Amino-ethox … (peptide)
peptide: B1 peptide with X10V, F22X
modifications: Aib2, αMeF(2F)6, αMeL13, Orn16, Aib20, αMeF22, D-Glu24, αMeY25; acylated K17, K31 (groups as in name); C-terminal amide
B8: Y-Aib-EGT-αMeF(2F)-TSD-αMeL-SI-aMeL-LD-Orn-K((2-[2-(2-Amino-ethoxy)-ethoxy]-acetyl)2-(γ-Glu)-CO-(CH2)12-CO2H)AQ-Aib-EFI-(D-Glu)-αMeY-LIEGGK((2-[2-(2-Amino-ethox … (peptide)
peptide: B1 peptide
modifications: Aib2, αMeF(2F)6, αMeL10, αMeL13, Orn16, Aib20, D-Glu24, αMeY25; acylated K17, K31 (groups as in name); C-terminal amide
B9: Y-Aib-EGT-αMeF(2F)-TSD-4Pal-SI-αMeL-LD-Orn-K((2-[2-(2-Amino-ethoxy)-ethoxy]-acetyl)2-(γ-Glu)-CO-(CH2)12-CO2H)GQ-Aib-EFI-(D-Glu)-αMeY-LIEGGK((2-[2-(2-Amino-ethox … (peptide)
peptide: B1 peptide with A18G
modifications: Aib2, αMeF(2F)6, 4Pal10, αMeL13, Orn16, Aib20, D-Glu24, αMeY25; acylated K17, K31 (groups as in name); C-terminal amide
B10: Y-Aib-EGT-αMeF(2F)-TSD-αMeF(2F)-SI-αMeL-LD-Orn-K((2-[2-(2-Amino-ethoxy)-ethoxy]-acetyl)2-(γ-Glu)-CO-(CH2)12-CO2H)AQ-Aib-EFI-(D-Glu)-αMeY-LIEGGK((2-[2-(2-Amino-e … (peptide)
peptide: B1 peptide
modifications: Aib2, αMeF(2F)6, αMeF(2F)10, αMeL13, Orn16, Aib20, D-Glu24, αMeY25; acylated K17, K31 (groups as in name); C-terminal amide
B11: Y-Aib-EGT-αMeF(2F)-TSD-Bip-SI-αMeL-LD-Orn-K((2-[2-(2-Amino-ethoxy)-ethoxy]-acetyl)2-(γ-Glu)-CO-(CH2)12-CO2H)AQ-Aib-EFI-(D-Glu)-αMeY-LIEGGK((2-[2-(2-Amino-ethoxy … (peptide)
peptide: B1 peptide
modifications: Aib2, αMeF(2F)6, Bip10, αMeL13, Orn16, Aib20, D-Glu24, αMeY25; acylated K17, K31 (groups as in name); C-terminal amide
B12: Y-Aib-EGT-αMeF(2F)-TSD-4Pal-SI-αMeL-LD-Orn-K((2-[2-(2-Amino-ethoxy)-ethoxy]-acetyl)2-(γ-Glu)-CO-(CH2)12-CO2H)AQ-Aib-E-3FPhe-I-(D-Glu)-αMeY-LIEGGK((2-[2-(2-Amino … (peptide)
peptide: B1 peptide with F22X
modifications: Aib2, αMeF(2F)6, 4Pal10, αMeL13, Orn16, Aib20, 3FPhe22, D-Glu24, αMeY25; acylated K17, K31 (groups as in name); C-terminal amide
B13: Y-Aib-EGT-αMeF(2F)-TSDY-aMeS-I-αMeL-LD-Orn-K((2-[2-(2-Amino-ethoxy)-ethoxy]-acetyl)2-(γ-Glu)-CO-(CH2)12-CO2H)AQ-Aib-EFI-(D-Glu)-αMeY-LIEGGK((2-[2-(2-Amino-ethox … (peptide)
peptide: B1 peptide with X10Y, S11X
modifications: Aib2, αMeF(2F)6, αMeS11, αMeL13, Orn16, Aib20, D-Glu24, αMeY25; acylated K17, K31 (groups as in name); C-terminal amide
B14: Y-Aib-EGT-αMeF(2F)-TSD-4Pal-SI-αMeL-LD-Orn-K((2-[2-(2-Amino-ethoxy)-ethoxy]-acetyl)2-(γ-Glu)-CO-(CH2)12-CO2H)AQ-Aib-E-1Nal-I-(D-Glu)-αMeY-LIEGGK((2-[2-(2-Amino- … (peptide)
peptide: B1 peptide with F22X
modifications: Aib2, αMeF(2F)6, 4Pal10, αMeL13, Orn16, Aib20, 1Nal22, D-Glu24, αMeY25; acylated K17, K31 (groups as in name); C-terminal amide
B15: Y-Aib-EGT-αMeF(2F)-TSD-ChA-SI-αMeL-LD-Orn-K((2-[2-(2-Amino-ethoxy)-ethoxy]-acetyl)2-(γ-Glu)-CO-(CH2)12-CO2H)AQ-Aib-EFI-(D-Glu)-αMeY-LIEGGK((2-[2-(2-Amino-ethoxy … (peptide)
peptide: B1 peptide
modifications: Aib2, αMeF(2F)6, ChA10, αMeL13, Orn16, Aib20, D-Glu24, αMeY25; acylated K17, K31 (groups as in name); C-terminal amide
B16: Y-Aib-EGT-αMeF(2F)-TSD-ChG-SI-αMeL-LD-Orn-K((2-[2-(2-Amino-ethoxy)-ethoxy]-acetyl)2-(γ-Glu)-CO-(CH2)12-CO2H)AQ-Aib-EFI-(D-Glu)-αMeY-LIEGGK((2-[2-(2-Amino-ethoxy … (peptide)
peptide: B1 peptide
modifications: Aib2, αMeF(2F)6, ChG10, αMeL13, Orn16, Aib20, D-Glu24, αMeY25; acylated K17, K31 (groups as in name); C-terminal amide
B17: Y-Aib-EGT-αMeF(2F)-TSD-4Pal-SI-αMeL-LD-Orn-K((2-[2-(2-Amino-ethoxy)-ethoxy]-acetyl)2-(γ-Glu)-CO-(CH2)12-CO2H)AQ-Aib-E-3,5FPhe-I-(D-Glu)-αMeY-LIEGGK((2-[2-(2-Ami … (peptide)
peptide: B1 peptide with F22X
modifications: Aib2, αMeF(2F)6, 4Pal10, αMeL13, Orn16, Aib20, 3,5FPhe22, D-Glu24, αMeY25; acylated K17, K31 (groups as in name); C-terminal amide

molecular target: human glucagon receptor (human, UniProt P47871 26-477); test: cell-based or functional assay

| Binder | cAMP EC50 (1.0% HSA) |
| --- | --- |
| B1 | > 9.95 µM |
| B2 | > 9.95 µM |
| B3 | > 9.95 µM |
| B4 | > 9.95 µM |
| B5 | > 9.95 µM |
| B6 | > 9.95 µM |
| B7 | > 9.95 µM |
| B8 | > 9.95 µM |
| B9 | > 9.95 µM |
| B10 | > 9.95 µM |
| B11 | > 9.95 µM |
| B12 | > 9.95 µM |
| B13 | > 9.95 µM |
| B14 | > 9.95 µM |
| B15 | > 9.95 µM |
| B16 | > 9.95 µM |
| B17 | > 9.95 µM |

molecular target: T1, human GIP receptor; test: cell-based or functional assay

| Binder | cAMP EC50 (1.0% HSA) | cAMP Emax (1.0% HSA) |
| --- | --- | --- |
| B1 | 0.0128 µM | 73.3% |
| B2 | 0.00249 µM | – |
| B3 | 0.000865 µM | – |
| B4 | 0.00149 µM | 94.2% |
| B5 | 0.00468 µM | – |
| B6 | 0.000515 µM | 94.2% |
| B7 | 0.00264 µM | 102% |
| B8 | 0.0158 µM | – |
| B9 | 0.00236 µM | 96.9% |
| B10 | 0.00484 µM | – |
| B11 | 0.00662 µM | – |
| B12 | 0.000986 µM | 90.5% |
| B13 | 0.00151 µM | 92.4% |
| B14 | 0.000787 µM | 90.6% |
| B15 | 0.00497 µM | – |
| B16 | 0.00549 µM | – |
| B17 | 0.00105 µM | – |

molecular target: human GLP-1 receptor (human, UniProt P43220 24-463); test: cell-based or functional assay

| Binder | cAMP EC50 (1.0% HSA) | cAMP Emax (1.0% HSA) |
| --- | --- | --- |
| B1 | 0.261 µM | – |
| B2 | 0.02 µM | 81.1% |
| B3 | 0.0203 µM | – |
| B4 | 0.0277 µM | 108% |
| B5 | 0.00884 µM | 84% |
| B6 | 0.0355 µM | – |
| B7 | 0.0768 µM | 108% |
| B8 | 0.1 µM | – |
| B9 | 0.367 µM | – |
| B10 | 0.08 µM | – |
| B11 | 0.0705 µM | – |
| B12 | 0.027 µM | 87.8% |
| B13 | 0.0201 µM | – |
| B14 | 0.027 µM | 93% |
| B15 | 0.0581 µM | – |
| B16 | 0.227 µM | – |
| B17 | 0.0255 µM | 104% |
